Assay results as given in US20230357348A1 (AstraZeneca / MedImmune, published 2023).
Starred links: 1 amine or outer side, 2 acyl side, 3 side chain; linkers in the order of their positions; H or OH if unused. Non-standard residues stand in square brackets, D forms with d. Groups on a side chain read outwards from the residue. No end group written: not given here. *: point of attachment. C20 diacid = O=C(O)CCCCCCCCCCCCCCCCCCC(=O)*; C18 diacid = O=C(O)CCCCCCCCCCCCCCCCC(=O)*; γGlu = O=C(O)[C@H](CCC(=O)[*:2])N[*:1]; αMeF = C[C@](N)(Cc1ccccc1)C(=O)O; AEEA = NCCOCCOCC(=O)O; Aib = CC(C)(N)C(=O)O

What was measured:
[1] = target: human glucagon receptor (hGCGR) (human, UniProt P47871 26-477); assay: cell-based or functional assay
Sequence of human glucagon receptor (hGCGR) (P47871 26-477): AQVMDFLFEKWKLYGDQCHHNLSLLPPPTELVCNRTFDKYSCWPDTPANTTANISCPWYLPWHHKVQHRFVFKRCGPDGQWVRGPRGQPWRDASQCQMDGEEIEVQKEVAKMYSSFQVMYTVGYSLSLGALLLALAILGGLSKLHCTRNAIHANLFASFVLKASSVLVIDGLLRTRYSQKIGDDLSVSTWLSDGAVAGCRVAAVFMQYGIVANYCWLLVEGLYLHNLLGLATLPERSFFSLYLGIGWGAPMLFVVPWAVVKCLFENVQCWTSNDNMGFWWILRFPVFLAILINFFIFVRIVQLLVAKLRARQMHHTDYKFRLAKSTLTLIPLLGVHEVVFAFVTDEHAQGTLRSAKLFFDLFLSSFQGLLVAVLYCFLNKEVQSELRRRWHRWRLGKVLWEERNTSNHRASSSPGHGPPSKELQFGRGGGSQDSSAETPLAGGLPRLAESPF

[2] = target: human GLP-1 receptor (hGLP-1R) (human, UniProt P43220 24-463); assay: cell-based or functional assay

B1: Peptide 514 (peptide)
peptide: H[Aib]QGTFTSDVSK[αMeF]LDTK([AEEA-AEEA-γGlu-C18 diacid])AARDFVQWLLE[Aib]G-NH2
modifications: N-terminus assumed
SMILES: CC(C)C[C@H](NC(=O)[C@H](Cc1c[nH]c2ccccc12)NC(=O)[C@H](CCC(N)=O)NC(=O)[C@@H](NC(=O)[C@H](Cc1ccccc1)NC(=O)[C@H](CC(=O)O)NC(=O)[C@H](CCCNC(=N)N)NC(=O)[C@H](C)NC(=O)[C@H](C)NC(=O)[C@H](CCCCNC(=O)COCCOCCNC(=O)COCCOCCNC(=O)CC[C@H](NC(=O)CCCCCCCCCCCCCCCCC(=O)O)C(=O)O)NC(=O)[C@@H](NC(=O)[C@H](CC(=O)O)NC(=O)[C@H](CC(C)C)NC(=O)[C@](C)(Cc1ccccc1)NC(=O)[C@H](CCCCN)NC(=O)[C@H](CO)NC(=O)[C@@H](NC(=O)[C@H](CC(=O)O)NC(=O)[C@H](CO)NC(=O)[C@@H](NC(=O)[C@H](Cc1ccccc1)NC(=O)[C@@H](NC(=O)CNC(=O)[C@H](CCC(N)=O)NC(=O)C(C)(C)NC(=O)[C@@H](N)Cc1c[nH]cn1)[C@@H](C)O)[C@@H](C)O)C(C)C)[C@@H](C)O)C(C)C)C(=O)N[C@@H](CC(C)C)C(=O)N[C@@H](CCC(=O)O)C(=O)NC(C)(C)C(=O)NCC(N)=O
[1]
  hGluc-R EC50 (pM): 1370 pM
[2]
  hGLP-1R EC50 (pM): 76.7 pM

B2: Peptide 137 (peptide)
peptide: H[Aib]QGTFTSDVSK[αMeF]LDSK([γGlu-γGlu-AEEA-AEEA-γGlu-γGlu-C18 diacid])RAQDFVRWLLEG[Aib]-OH
modifications: N-terminus assumed
SMILES: CC(C)C[C@H](NC(=O)[C@H](CC(C)C)NC(=O)[C@H](Cc1c[nH]c2ccccc12)NC(=O)[C@H](CCCNC(=N)N)NC(=O)[C@@H](NC(=O)[C@H](Cc1ccccc1)NC(=O)[C@H](CC(=O)O)NC(=O)[C@H](CCC(N)=O)NC(=O)[C@H](C)NC(=O)[C@H](CCCNC(=N)N)NC(=O)[C@H](CCCCNC(=O)CC[C@H](NC(=O)CC[C@H](NC(=O)COCCOCCNC(=O)COCCOCCNC(=O)CC[C@H](NC(=O)CC[C@H](NC(=O)CCCCCCCCCCCCCCCCC(=O)O)C(=O)O)C(=O)O)C(=O)O)C(=O)O)NC(=O)[C@H](CO)NC(=O)[C@H](CC(=O)O)NC(=O)[C@H](CC(C)C)NC(=O)[C@](C)(Cc1ccccc1)NC(=O)[C@H](CCCCN)NC(=O)[C@H](CO)NC(=O)[C@@H](NC(=O)[C@H](CC(=O)O)NC(=O)[C@H](CO)NC(=O)[C@@H](NC(=O)[C@H](Cc1ccccc1)NC(=O)[C@@H](NC(=O)CNC(=O)[C@H](CCC(N)=O)NC(=O)C(C)(C)NC(=O)[C@@H](N)Cc1c[nH]cn1)[C@@H](C)O)[C@@H](C)O)C(C)C)C(C)C)C(=O)N[C@@H](CCC(=O)O)C(=O)NCC(=O)NC(C)(C)C(=O)O
[1]
  hGluc-R EC50 (pM): 268 pM
[2]
  hGLP-1R EC50 (pM): 143 pM

B3: Peptide 513 (peptide)
peptide: H[Aib]QGT[αMeF]TSDVSK[αMeF]LDTK([AEEA-AEEA-γGlu-C18 diacid])RARD[αMeF]VQWLLA[Aib]G-NH2
modifications: N-terminus assumed
SMILES: CC(C)C[C@H](NC(=O)[C@H](CC(C)C)NC(=O)[C@H](Cc1c[nH]c2ccccc12)NC(=O)[C@H](CCC(N)=O)NC(=O)[C@@H](NC(=O)[C@](C)(Cc1ccccc1)NC(=O)[C@H](CC(=O)O)NC(=O)[C@H](CCCNC(=N)N)NC(=O)[C@H](C)NC(=O)[C@H](CCCNC(=N)N)NC(=O)[C@H](CCCCNC(=O)COCCOCCNC(=O)COCCOCCNC(=O)CC[C@H](NC(=O)CCCCCCCCCCCCCCCCC(=O)O)C(=O)O)NC(=O)[C@@H](NC(=O)[C@H](CC(=O)O)NC(=O)[C@H](CC(C)C)NC(=O)[C@](C)(Cc1ccccc1)NC(=O)[C@H](CCCCN)NC(=O)[C@H](CO)NC(=O)[C@@H](NC(=O)[C@H](CC(=O)O)NC(=O)[C@H](CO)NC(=O)[C@@H](NC(=O)[C@](C)(Cc1ccccc1)NC(=O)[C@@H](NC(=O)CNC(=O)[C@H](CCC(N)=O)NC(=O)C(C)(C)NC(=O)[C@@H](N)Cc1c[nH]cn1)[C@@H](C)O)[C@@H](C)O)C(C)C)[C@@H](C)O)C(C)C)C(=O)N[C@@H](C)C(=O)NC(C)(C)C(=O)NCC(N)=O
[1]
  hGluc-R EC50 (pM): 1340 pM
[2]
  hGLP-1R EC50 (pM): 93.8 pM

B4: Peptide 136 (peptide)
peptide: H[Aib]QGTFTSDVSK[αMeF]LDSK([γGlu-γGlu-AEEA-AEEA-γGlu-γGlu-C18 diacid])RARDFVRWLLE[Aib]G-OH
modifications: N-terminus assumed
SMILES: CC(C)C[C@H](NC(=O)[C@H](Cc1c[nH]c2ccccc12)NC(=O)[C@H](CCCNC(=N)N)NC(=O)[C@@H](NC(=O)[C@H](Cc1ccccc1)NC(=O)[C@H](CC(=O)O)NC(=O)[C@H](CCCNC(=N)N)NC(=O)[C@H](C)NC(=O)[C@H](CCCNC(=N)N)NC(=O)[C@H](CCCCNC(=O)CC[C@H](NC(=O)CC[C@H](NC(=O)COCCOCCNC(=O)COCCOCCNC(=O)CC[C@H](NC(=O)CC[C@H](NC(=O)CCCCCCCCCCCCCCCCC(=O)O)C(=O)O)C(=O)O)C(=O)O)C(=O)O)NC(=O)[C@H](CO)NC(=O)[C@H](CC(=O)O)NC(=O)[C@H](CC(C)C)NC(=O)[C@](C)(Cc1ccccc1)NC(=O)[C@H](CCCCN)NC(=O)[C@H](CO)NC(=O)[C@@H](NC(=O)[C@H](CC(=O)O)NC(=O)[C@H](CO)NC(=O)[C@@H](NC(=O)[C@H](Cc1ccccc1)NC(=O)[C@@H](NC(=O)CNC(=O)[C@H](CCC(N)=O)NC(=O)C(C)(C)NC(=O)[C@@H](N)Cc1c[nH]cn1)[C@@H](C)O)[C@@H](C)O)C(C)C)C(C)C)C(=O)N[C@@H](CC(C)C)C(=O)N[C@@H](CCC(=O)O)C(=O)NC(C)(C)C(=O)NCC(=O)O
[1]
  hGluc-R EC50 (pM): 509 pM
[2]
  hGLP-1R EC50 (pM): 45.2 pM

B5: Peptide 512 (peptide)
peptide: H[Aib]QGT[αMeF]TSDVSK[αMeF]LDTK([AEEA-AEEA-γGlu-C18 diacid])RAQD[αMeF]VRWLLA[Aib]G-NH2
modifications: N-terminus assumed
SMILES: CC(C)C[C@H](NC(=O)[C@H](CC(C)C)NC(=O)[C@H](Cc1c[nH]c2ccccc12)NC(=O)[C@H](CCCNC(=N)N)NC(=O)[C@@H](NC(=O)[C@](C)(Cc1ccccc1)NC(=O)[C@H](CC(=O)O)NC(=O)[C@H](CCC(N)=O)NC(=O)[C@H](C)NC(=O)[C@H](CCCNC(=N)N)NC(=O)[C@H](CCCCNC(=O)COCCOCCNC(=O)COCCOCCNC(=O)CC[C@H](NC(=O)CCCCCCCCCCCCCCCCC(=O)O)C(=O)O)NC(=O)[C@@H](NC(=O)[C@H](CC(=O)O)NC(=O)[C@H](CC(C)C)NC(=O)[C@](C)(Cc1ccccc1)NC(=O)[C@H](CCCCN)NC(=O)[C@H](CO)NC(=O)[C@@H](NC(=O)[C@H](CC(=O)O)NC(=O)[C@H](CO)NC(=O)[C@@H](NC(=O)[C@](C)(Cc1ccccc1)NC(=O)[C@@H](NC(=O)CNC(=O)[C@H](CCC(N)=O)NC(=O)C(C)(C)NC(=O)[C@@H](N)Cc1c[nH]cn1)[C@@H](C)O)[C@@H](C)O)C(C)C)[C@@H](C)O)C(C)C)C(=O)N[C@@H](C)C(=O)NC(C)(C)C(=O)NCC(N)=O
[1]
  hGluc-R EC50 (pM): 2310 pM
[2]
  hGLP-1R EC50 (pM): 159 pM

B6: Peptide 517 (peptide)
peptide: H[Aib]QGTFTSDVSK[αMeF]LEAK([AEEA-AEEA-γGlu-γGlu-C18 diacid])AAREFIAWLLET-NH2
modifications: N-terminus assumed
SMILES: CC[C@H](C)[C@H](NC(=O)[C@H](Cc1ccccc1)NC(=O)[C@H](CCC(=O)O)NC(=O)[C@H](CCCNC(=N)N)NC(=O)[C@H](C)NC(=O)[C@H](C)NC(=O)[C@H](CCCCNC(=O)COCCOCCNC(=O)COCCOCCNC(=O)CC[C@H](NC(=O)CC[C@H](NC(=O)CCCCCCCCCCCCCCCCC(=O)O)C(=O)O)C(=O)O)NC(=O)[C@H](C)NC(=O)[C@H](CCC(=O)O)NC(=O)[C@H](CC(C)C)NC(=O)[C@](C)(Cc1ccccc1)NC(=O)[C@H](CCCCN)NC(=O)[C@H](CO)NC(=O)[C@@H](NC(=O)[C@H](CC(=O)O)NC(=O)[C@H](CO)NC(=O)[C@@H](NC(=O)[C@H](Cc1ccccc1)NC(=O)[C@@H](NC(=O)CNC(=O)[C@H](CCC(N)=O)NC(=O)C(C)(C)NC(=O)[C@@H](N)Cc1c[nH]cn1)[C@@H](C)O)[C@@H](C)O)C(C)C)C(=O)N[C@@H](C)C(=O)N[C@@H](Cc1c[nH]c2ccccc12)C(=O)N[C@@H](CC(C)C)C(=O)N[C@@H](CC(C)C)C(=O)N[C@@H](CCC(=O)O)C(=O)N[C@H](C(N)=O)[C@@H](C)O
[1]
  hGluc-R EC50 (pM): 738 pM
[2]
  hGLP-1R EC50 (pM): 146 pM

B7: Peptide 515 (peptide)
peptide: H[Aib]QGTFTSDVSK[αMeF]LDTK([AEEA-AEEA-γGlu-C20 diacid])AARDFVQWLLE[Aib]G-NH2
modifications: N-terminus assumed
SMILES: CC(C)C[C@H](NC(=O)[C@H](Cc1c[nH]c2ccccc12)NC(=O)[C@H](CCC(N)=O)NC(=O)[C@@H](NC(=O)[C@H](Cc1ccccc1)NC(=O)[C@H](CC(=O)O)NC(=O)[C@H](CCCNC(=N)N)NC(=O)[C@H](C)NC(=O)[C@H](C)NC(=O)[C@H](CCCCNC(=O)COCCOCCNC(=O)COCCOCCNC(=O)CC[C@H](NC(=O)CCCCCCCCCCCCCCCCCCC(=O)O)C(=O)O)NC(=O)[C@@H](NC(=O)[C@H](CC(=O)O)NC(=O)[C@H](CC(C)C)NC(=O)[C@](C)(Cc1ccccc1)NC(=O)[C@H](CCCCN)NC(=O)[C@H](CO)NC(=O)[C@@H](NC(=O)[C@H](CC(=O)O)NC(=O)[C@H](CO)NC(=O)[C@@H](NC(=O)[C@H](Cc1ccccc1)NC(=O)[C@@H](NC(=O)CNC(=O)[C@H](CCC(N)=O)NC(=O)C(C)(C)NC(=O)[C@@H](N)Cc1c[nH]cn1)[C@@H](C)O)[C@@H](C)O)C(C)C)[C@@H](C)O)C(C)C)C(=O)N[C@@H](CC(C)C)C(=O)N[C@@H](CCC(=O)O)C(=O)NC(C)(C)C(=O)NCC(N)=O
[1]
  hGluc-R EC50 (pM): 2660 pM
[2]
  hGLP-1R EC50 (pM): 297 pM
